Changes are numbered by the printed parent chain. In names and notes the source's numbering stands.

Assay [1] deals with Human LILRB1 ECD recombinant protein with 6×His-tag (human) (UniProt Q8NHL6). In words: ELISA: plate coated with LILRB1 ECD recombinant protein, antibody at 0.5 ug/mL (method of example 3.2.1); mean OD450 printed over the bar [continued) F]. Background: In an ELISA, binding on a coated surface is turned into a signal by an enzyme label.
The target of assay [2] is Human LILRB5 ECD recombinant protein with 6×His-tag (human) (UniProt O75023). Put plainly: ELISA: plate coated with LILRB5 ECD recombinant protein, antibody at 0.5 ug/mL (method of example 3.2.1); mean OD450 printed over the bar [continued) I].
Chain of Human LILRB5 ECD recombinant protein with 6×His-tag (human) (O75023 24-458 limits assumed): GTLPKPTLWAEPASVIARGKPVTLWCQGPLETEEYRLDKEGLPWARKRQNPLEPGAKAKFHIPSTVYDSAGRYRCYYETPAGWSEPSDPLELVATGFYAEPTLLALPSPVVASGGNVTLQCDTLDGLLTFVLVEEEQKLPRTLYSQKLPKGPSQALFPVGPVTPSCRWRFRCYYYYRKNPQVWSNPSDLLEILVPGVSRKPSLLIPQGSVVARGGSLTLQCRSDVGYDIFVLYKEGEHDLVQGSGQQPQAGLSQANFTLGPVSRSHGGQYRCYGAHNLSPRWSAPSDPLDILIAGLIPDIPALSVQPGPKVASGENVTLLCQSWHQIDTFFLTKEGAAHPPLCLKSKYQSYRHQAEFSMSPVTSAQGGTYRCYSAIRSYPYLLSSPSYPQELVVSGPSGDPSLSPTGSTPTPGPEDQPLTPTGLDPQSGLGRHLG
Assay [3] addresses 6×His-tagged human LILRB2 ECD recombinant protein (human) (UniProt Q8N423). In words: ELISA: plate coated with 6xHis-tagged human LILRB2 ECD, antibody at 0.5 ug/mL, HRP detection antibody; mean OD450 printed over the bar.
Assay [4] addresses Human LILRB3 ECD recombinant protein with 6×His-tag (human) (UniProt O75022). In words: ELISA: plate coated with LILRB3 ECD recombinant protein, antibody at 0.5 ug/mL (method of example 3.2.1); mean OD450 printed over the bar [continued) G].
In assay [5] the target is Human LILRB4 ECD recombinant protein with 6×His-tag (human) (UniProt Q8NHJ6). In words: ELISA: plate coated with LILRB4 ECD recombinant protein, antibody at 0.5 ug/mL (method of example 3.2.1); mean OD450 printed over the bar [continued) H].
The target of assay [6] is Human LILRA5 ECD recombinant protein with 6×His-tag (human) (UniProt A6NI73). In words: ELISA: plate coated with LILRA5 ECD recombinant protein, antibody at 0.5 ug/mL (method of example 3.2.1); mean OD450 printed over the bar [continued) E].
Chain of Human LILRA5 ECD recombinant protein with 6×His-tag (human) (A6NI73 42-268 limits assumed, form in doubt): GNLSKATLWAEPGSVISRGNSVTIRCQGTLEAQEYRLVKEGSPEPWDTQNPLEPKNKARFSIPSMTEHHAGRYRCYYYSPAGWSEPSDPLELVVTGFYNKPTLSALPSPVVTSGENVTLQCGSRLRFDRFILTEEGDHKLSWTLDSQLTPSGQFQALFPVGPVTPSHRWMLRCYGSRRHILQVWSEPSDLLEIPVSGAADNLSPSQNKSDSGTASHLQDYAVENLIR
For assay [7], the target named is Human LILRA3 ECD recombinant protein with 6×His-tag (human) (UniProt Q8N6C8). Put plainly: ELISA: plate coated with LILRA3 ECD recombinant protein, antibody at 0.5 ug/mL (method of example 3.2.1); mean OD450 printed over the bar [continued) C].
Chain of Human LILRA3 ECD recombinant protein with 6×His-tag (human) (Q8N6C8 24-439 limits assumed, form in doubt): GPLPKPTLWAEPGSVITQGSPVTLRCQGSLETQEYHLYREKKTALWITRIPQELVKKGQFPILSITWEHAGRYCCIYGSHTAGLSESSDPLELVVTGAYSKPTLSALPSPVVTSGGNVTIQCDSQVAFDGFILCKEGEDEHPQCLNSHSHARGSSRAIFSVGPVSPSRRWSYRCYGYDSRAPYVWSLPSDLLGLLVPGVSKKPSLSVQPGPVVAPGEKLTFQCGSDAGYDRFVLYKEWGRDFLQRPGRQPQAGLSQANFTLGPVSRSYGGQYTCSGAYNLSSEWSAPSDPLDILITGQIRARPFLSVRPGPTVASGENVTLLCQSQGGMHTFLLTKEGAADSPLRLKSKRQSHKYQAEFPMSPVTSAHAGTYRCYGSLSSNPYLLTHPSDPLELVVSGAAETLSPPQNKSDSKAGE
The target in assay [8] is Human LILRA2 ECD recombinant protein with His-tag (human) (UniProt Q8N149). In words: ELISA: plate coated with LILRA2 ECD recombinant protein, antibody at 0.5 ug/mL (method of example 3.2.1); mean OD450 printed over the bar [continued) B].
Chain of Human LILRA2 ECD recombinant protein with His-tag (human) (Q8N149 24-449 limits assumed): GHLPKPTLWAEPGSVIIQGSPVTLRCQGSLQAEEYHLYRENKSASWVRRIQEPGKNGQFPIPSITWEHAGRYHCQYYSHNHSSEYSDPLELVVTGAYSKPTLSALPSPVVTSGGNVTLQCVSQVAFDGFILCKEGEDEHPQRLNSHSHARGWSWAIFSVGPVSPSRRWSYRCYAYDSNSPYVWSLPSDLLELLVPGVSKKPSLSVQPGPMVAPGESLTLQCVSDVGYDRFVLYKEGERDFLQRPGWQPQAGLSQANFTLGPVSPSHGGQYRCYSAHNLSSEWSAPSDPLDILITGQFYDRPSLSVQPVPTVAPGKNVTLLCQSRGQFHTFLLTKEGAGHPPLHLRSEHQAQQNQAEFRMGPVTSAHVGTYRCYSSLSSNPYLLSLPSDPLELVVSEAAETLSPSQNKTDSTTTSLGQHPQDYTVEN
Assay [9] addresses Human LILRA4 ECD recombinant protein with 6×His-tag (human) (UniProt P59901). In words: ELISA: plate coated with LILRA4 ECD recombinant protein, antibody at 0.5 ug/mL (method of example 3.2.1); mean OD450 printed over the bar [continued) D].
For assay [10], the target named is Human LILRA1 ECD recombinant protein with 6×His-tag (human) (UniProt O75019). Put plainly: ELISA: plate coated with LILRA1 ECD recombinant protein, antibody at 0.5 ug/mL (method of example 3.2.1); mean OD450 printed over the bar.
Chain of Human LILRA1 ECD recombinant protein with 6×His-tag (human) (O75019 17-461 limits assumed): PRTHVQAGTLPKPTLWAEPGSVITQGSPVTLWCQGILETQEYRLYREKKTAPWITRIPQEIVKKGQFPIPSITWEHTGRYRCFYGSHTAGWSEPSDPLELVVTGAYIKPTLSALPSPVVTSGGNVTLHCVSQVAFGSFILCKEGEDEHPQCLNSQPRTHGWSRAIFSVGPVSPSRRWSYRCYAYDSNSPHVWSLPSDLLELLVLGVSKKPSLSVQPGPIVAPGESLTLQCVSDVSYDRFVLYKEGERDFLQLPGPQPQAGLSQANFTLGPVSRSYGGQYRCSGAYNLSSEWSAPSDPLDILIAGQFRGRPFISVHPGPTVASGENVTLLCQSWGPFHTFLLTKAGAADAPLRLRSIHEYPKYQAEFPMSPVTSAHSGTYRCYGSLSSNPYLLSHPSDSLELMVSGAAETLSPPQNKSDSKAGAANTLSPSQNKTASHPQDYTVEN
For assay [11], the target named is T1, 6×His-tagged human LILRB2 ECD recombinant protein (human, UniProt Q8N423 22-458, limits assumed).
T1 construct: Bought protein; not shown: 6×His-tag
T1 sequence (Q8N423 22-458 limits assumed): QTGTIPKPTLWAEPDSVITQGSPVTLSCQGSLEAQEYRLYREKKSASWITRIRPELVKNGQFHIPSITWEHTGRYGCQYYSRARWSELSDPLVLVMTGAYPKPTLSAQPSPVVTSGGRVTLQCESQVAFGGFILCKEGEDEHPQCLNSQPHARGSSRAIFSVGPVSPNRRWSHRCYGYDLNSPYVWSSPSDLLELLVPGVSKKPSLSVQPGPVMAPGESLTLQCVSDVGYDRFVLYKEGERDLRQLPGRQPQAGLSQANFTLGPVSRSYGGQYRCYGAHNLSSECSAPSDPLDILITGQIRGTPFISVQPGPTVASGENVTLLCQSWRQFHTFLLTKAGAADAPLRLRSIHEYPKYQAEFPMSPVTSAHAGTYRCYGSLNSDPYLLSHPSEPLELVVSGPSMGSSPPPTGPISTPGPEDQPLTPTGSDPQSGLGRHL
In words: Octet, 1:1 model; column printed as 'kd (1/s)', heads of c4 and c5 are swapped.

Assay [12] addresses T2, Human LILRB2 stably expressed on EL4 cells (EL4/LILRB2) (human, UniProt Q8N423 22-597).
T2 construct: also called EL4-LILRB2 cells; cell membrane human LILRB2
Put plainly: FACS on EL4/LILRB2 cells.

Assay [13] addresses T2, Human LILRB2 stably expressed on EL4 …. In words: competitive FACS, blockade of HLA-G binding to LILRB2 on cells.
Description: The blocking activities were determined by quantitating the blockade of the ligands binding to EL4/LILRB2 cells.
For assay [14], the target named is T1, 6×His-tagged human LILRB2 ECD …. Put plainly: Octet, 1:1 model.
Assay [15] shares this target. Put plainly: Octet, 1:1 model; column printed as 'ka (1/Ms)', heads of c4 and c5 are swapped. Background: Biolayer interferometry detects binding as a change in optical thickness at a sensor tip.
Assay [16] shares this target. Put plainly: Biacore, 1:1 model; column printed as 'ka (1/Ms)', heads of c4 and c5 are swapped. In general terms: In SPR one partner is held on a chip, and binding of the other changes the refractive index at the surface.
The target is the same in assay [17]. Put plainly: Biacore, 1:1 model.
Assay [18] has the same target. Put plainly: Biacore, 1:1 model; column printed as 'kd (1/s)', heads of c4 and c5 are swapped.
For assay [19] the target is unchanged. In words: Bio-Layer Interferometry, hybridoma antibody on human LILRB2.

T2 sequence (Q8N423 22-597 limits assumed): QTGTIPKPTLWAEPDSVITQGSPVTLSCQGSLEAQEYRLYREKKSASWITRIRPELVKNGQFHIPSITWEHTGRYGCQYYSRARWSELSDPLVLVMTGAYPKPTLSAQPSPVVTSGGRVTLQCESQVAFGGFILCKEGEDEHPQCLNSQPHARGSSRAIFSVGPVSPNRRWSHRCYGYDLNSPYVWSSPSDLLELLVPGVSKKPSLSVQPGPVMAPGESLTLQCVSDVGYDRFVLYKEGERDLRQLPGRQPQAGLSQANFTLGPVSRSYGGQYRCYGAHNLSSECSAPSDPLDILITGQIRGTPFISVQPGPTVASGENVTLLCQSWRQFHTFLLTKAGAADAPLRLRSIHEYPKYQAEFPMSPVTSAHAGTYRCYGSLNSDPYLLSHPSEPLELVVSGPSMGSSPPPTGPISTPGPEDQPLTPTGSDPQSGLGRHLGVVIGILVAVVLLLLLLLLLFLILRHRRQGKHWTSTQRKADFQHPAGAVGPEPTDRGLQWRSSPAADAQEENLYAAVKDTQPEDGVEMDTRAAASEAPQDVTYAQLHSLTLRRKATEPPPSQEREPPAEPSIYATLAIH
Chain of Human LILRB1 ECD recombinant protein with 6×His-tag (human) (Q8NHL6 24-458 limits assumed): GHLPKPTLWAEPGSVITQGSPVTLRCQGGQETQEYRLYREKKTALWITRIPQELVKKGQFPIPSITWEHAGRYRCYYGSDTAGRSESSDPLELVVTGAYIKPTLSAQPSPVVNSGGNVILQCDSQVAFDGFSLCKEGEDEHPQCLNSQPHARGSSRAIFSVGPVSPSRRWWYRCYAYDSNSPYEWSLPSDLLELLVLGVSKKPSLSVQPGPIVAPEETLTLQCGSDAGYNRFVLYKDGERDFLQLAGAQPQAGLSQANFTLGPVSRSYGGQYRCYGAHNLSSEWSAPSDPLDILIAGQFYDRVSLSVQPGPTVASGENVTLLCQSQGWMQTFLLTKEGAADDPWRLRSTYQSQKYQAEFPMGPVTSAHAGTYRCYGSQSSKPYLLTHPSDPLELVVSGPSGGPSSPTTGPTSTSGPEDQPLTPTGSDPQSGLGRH
Chain of Human LILRA4 ECD recombinant protein with 6×His-tag (human) (P59901 24-446 limits assumed): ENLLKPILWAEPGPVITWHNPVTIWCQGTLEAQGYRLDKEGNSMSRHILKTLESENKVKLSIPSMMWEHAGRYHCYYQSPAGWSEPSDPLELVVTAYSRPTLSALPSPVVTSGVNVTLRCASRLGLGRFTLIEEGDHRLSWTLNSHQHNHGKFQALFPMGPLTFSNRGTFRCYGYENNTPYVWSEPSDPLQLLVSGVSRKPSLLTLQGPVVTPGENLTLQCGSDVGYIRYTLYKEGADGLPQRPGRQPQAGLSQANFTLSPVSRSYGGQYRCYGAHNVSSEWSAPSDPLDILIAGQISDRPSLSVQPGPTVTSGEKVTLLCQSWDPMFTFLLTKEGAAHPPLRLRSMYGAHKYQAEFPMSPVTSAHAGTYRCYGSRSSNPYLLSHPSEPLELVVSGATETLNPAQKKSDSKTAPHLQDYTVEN
Chain of 6×His-tagged human LILRB2 ECD recombinant protein (human) (Q8N423 22-458 limits assumed): as the sequence (Q8N423 22-458 limits assumed) above

hIgG4 iso (antibody): the OD450 stood at 0.08 in assay [1]; 0.08 in assay [2]; 0.08 in assay [3]; 0.08 in [4]; 0.14 in [5]; 0.08 in assay [6]. In addition, the OD450 in [7] is 0.08; in assay [8], 0.07; in [9] it was 0.16; in [10], 0.15.

B1: hu043.04 (antibody, V domains shown)
VH: QVQLVQSGAEVKKPGASVKVSCKASGYTFTSYWMYWVRQAPGQGLEWIGHINPSSGYTKYNQKFKDRATLTADTSTSTAYMELSSLRSEDTAVYYCARDPNWDNYWGQGTTVTVSS
VL: DIQMTQSPSSLSASVGDRVTITCKASQDVSIAVAWYQQKPGKAPKLLIYSASYRYTGVPSRFSGSGSGTDFTFTISSLQPEDIATYYCQQHYSTPYTFGGGTKLEIK
notes: Humanized human IgG4 antibody with S228P in the constant region; also called hu043VH6 / hu043VL2
Consider B1, for which the kon (as a rule, the rate constant with which the complex forms) in [11] was 488000 M⁻¹ s⁻¹. In assay [12], the EC50 (in general, the concentration at which the effect is half-maximal) was 0.43 nM and the “TOP MFI” value was 45000 MFI. In assay [13], the half-maximal inhibitory concentration (IC50) (as a rule, the concentration at which inhibition is half-maximal) is 0.11 nM and the “TOP Blocking (%)” value came to 100%. Besides, in assay [14], the Kd – broadly, the constant that tells how readily two partners part at equilibrium – stood at 3.78 nM. In addition, the koff (in general, the first-order rate constant of dissociation) in [15] worked out at 0.00185 s⁻¹.

B2: hu043.06 (antibody, V domains shown)
VH: B1 VH with V5Q, V20L, A40R
VL: B1 VL
notes: Humanized human IgG4 antibody with S228P in the constant region; also called hu043VH8 / hu043VL2
Take B2: in assay [11], the kon is 512000 M⁻¹ s⁻¹. In addition, in assay [12], the midpoint of the response, the EC50, lay at 0.4 nM and the “TOP MFI” value amounted to 45700 MFI. In addition, in [13], the IC50 worked out at 0.11 nM and the “TOP Blocking (%)” value is 100%. In assay [14], the equilibrium dissociation constant (Kd) worked out at 3.63 nM. For the same molecule, in assay [15], the koff came to 0.00186 s⁻¹.

B3: hu043.07 (antibody, V domains shown)
VH: B1 VH with R67K, T74K
VL: B1 VL with L11M, L78V
notes: Humanized human IgG4 antibody with S228P in the constant region; also called hu043VH9 / hu043VL1
As to B3, the koff in [16] is 0.00379 s⁻¹. In addition, in [13], the IC50 amounted to 0.19 nM and the “TOP Blocking (%)” value was 100%. Besides, the Kd in [17] stood at 1.68 nM. The association rate constant (kon) in [18] is 2.25e+06 M⁻¹ s⁻¹.

B4: hu043.01 (antibody, V domains shown)
VH: B1 VH
VL: B1 VL with Q3V, T20S, S60D
notes: Humanized human IgG4 antibody with S228P in the constant region; also called hu043VH6 / hu043VL4
For B4, the association rate constant (kon) in assay [11] was 516000 M⁻¹ s⁻¹. Also, in assay [12], the EC50 was found to be 0.42 nM and the “TOP MFI” value turned out to be 45800 MFI. Moreover, in assay [13], the IC50 turned out to be 0.11 nM and the “TOP Blocking (%)” value turned out to be 100%. The Kd in [14] stood at 3.19 nM. For the same molecule, in assay [15], the koff stood at 0.00164 s⁻¹.

B5: hu043.05 (antibody, V domains shown)
VH: B1 VH with A68V, L70M, A79V
VL: B1 VL
notes: Humanized human IgG4 antibody with S228P in the constant region; also called hu043VH7 / hu043VL2
For the molecule B5, in assay [11], the kon was 501000 M⁻¹ s⁻¹. Also, in assay [12], the midpoint of the response, the EC50, lay at 0.42 nM and the “TOP MFI” value is 45100 MFI. Also, in [13], the 50% inhibitory concentration (IC50) was determined as 0.09 nM and the “TOP Blocking (%)” value was 100%. For the same molecule, the equilibrium dissociation constant (Kd) in assay [14] was determined as 3.9 nM. Also, in assay [15], the koff is 0.00199 s⁻¹.

B6: hu043.02 (antibody, V domains shown)
VH: B1 VH with A68V, L70M, A79V
VL: B1 VL with Q3V, T20S, S60D
notes: Humanized human IgG4 antibody with S228P in the constant region; also called hu043VH7 / hu043VL4
In the case of B6, in assay [11], the kon turned out to be 517000 M⁻¹ s⁻¹. Moreover, in assay [12], the EC50 is 0.35 nM and the “TOP MFI” value was found to be 45700 MFI. For the same molecule, in assay [13], the 50% inhibitory concentration (IC50) was determined as 0.1 nM and the “TOP Blocking (%)” value turned out to be 100%. The Kd in assay [14] was found to be 3.57 nM. For the same molecule, in assay [15], the dissociation rate constant (koff) is 0.00184 s⁻¹.

B7: hu043.03 (antibody, V domains shown)
VH: B1 VH with V5Q, V20L, A40R
VL: B1 VL with Q3V, T20S, S60D
notes: Humanized human IgG4 antibody with S228P in the constant region; also called hu043VH8 / hu043VL4
Consider B7, for which, in assay [11], the kon turned out to be 466000 M⁻¹ s⁻¹. In assay [12], the EC50 is 0.41 nM and the “TOP MFI” value amounted to 46300 MFI. In assay [13], the concentration for half-maximal inhibition (IC50) was 0.1 nM and the “TOP Blocking (%)” value was found to be 100%. Besides, the Kd in assay [14] came out at 5.22 nM. For the same molecule, in assay [15], the koff was found to be 0.00243 s⁻¹.

B8: hu043.08 (antibody, V domains shown)
VH: B1 VH with R67K, T74K, V112L
VL: B1 VL with L11M, L78V
notes: Humanized human IgG4 antibody with S228P in the constant region; also called hu043VH10 / hu043VL1
B8: the koff in assay [16] was found to be 0.00378 s⁻¹. In assay [13], the 50% inhibitory concentration (IC50) came out at 0.19 nM and the “TOP Blocking (%)” value stood at 100%. Moreover, the Kd in assay [17] came to 1.71 nM. Further, the association rate constant (kon) in assay [18] is 2.21e+06 M⁻¹ s⁻¹.

B9: monoclonal antibody secreted by hybridoma clone 8G2F10 (antibody, V domains shown)
VH: QVQLQQSGAELAKPGASVKLSCKASGYTFTSYWMYWVKQRPGQGLEWIGHINPSSGYTKYNQKFKDKATLTADKSSSTAYMQLSSLTYEDSAVYYCARDPNWDNYWGQGTTLTVSS
VL: DIVMTQSHKFMSTSVGDRVSITCKASQDVSIAVAWYQQKPGQSPKLLIYSASYRYTGVPDRFTGSGSGTDFTFTISSVQAEDLAVYYCQQHYSTPYTFGGGTKLEIK
notes: Mouse hybridoma antibody
For the molecule B9, in assay [19], the Kd came out at 1.35 nM, the off-rate (koff) was 0.00139 s⁻¹ and the on-rate constant (kon) is 1.04e+06 M⁻¹ s⁻¹.
